Experimental findings from PMC10173277 are described below.

Assay [1] addresses collagen type I, bovine tendon, as absorbable collagen sponge (ACS) (bovine) (UniProt P02453). Nature of the assay: absorption and release from a collagen sponge, protein in the supernatant by micro-BCA; ACS (150 μL) treated with the fragment in PBS for 1 h at room temperature (75 μg; for ColG-FNIII12-14 also 37.5 and 15 μg); release into 150 μL PBS at 37 °C, supernatant taken and PBS refreshed at 36, 60, 120 h.

For assay [2] the target is unchanged.
The target is the same in assay [3]. This is another data set of the same source.
The target in assay [4] is ColG-FNIII12-14 treated collagen scaffold (Clostridium histolyticum | not stated | bovine) (UniProt P02453). Nature of the assay: absorption and release of fluorescent rhBMP-2 from a collagen sponge, fluorescence of the supernatant; Dylight 488 rhBMP-2 (0.1, 0.5, 1, 2 μg/mL) incubated 1 h at 37 °C with ACS with or without ColG-FNIII12-14; release into PBS at 37 °C, supernatant read and PBS refreshed at 36, 60, 120 h.

Where two headings read alike, the source gives them in different places.

Chain of UniProt P02453 (P02453 162-1217, chain 1 of 2): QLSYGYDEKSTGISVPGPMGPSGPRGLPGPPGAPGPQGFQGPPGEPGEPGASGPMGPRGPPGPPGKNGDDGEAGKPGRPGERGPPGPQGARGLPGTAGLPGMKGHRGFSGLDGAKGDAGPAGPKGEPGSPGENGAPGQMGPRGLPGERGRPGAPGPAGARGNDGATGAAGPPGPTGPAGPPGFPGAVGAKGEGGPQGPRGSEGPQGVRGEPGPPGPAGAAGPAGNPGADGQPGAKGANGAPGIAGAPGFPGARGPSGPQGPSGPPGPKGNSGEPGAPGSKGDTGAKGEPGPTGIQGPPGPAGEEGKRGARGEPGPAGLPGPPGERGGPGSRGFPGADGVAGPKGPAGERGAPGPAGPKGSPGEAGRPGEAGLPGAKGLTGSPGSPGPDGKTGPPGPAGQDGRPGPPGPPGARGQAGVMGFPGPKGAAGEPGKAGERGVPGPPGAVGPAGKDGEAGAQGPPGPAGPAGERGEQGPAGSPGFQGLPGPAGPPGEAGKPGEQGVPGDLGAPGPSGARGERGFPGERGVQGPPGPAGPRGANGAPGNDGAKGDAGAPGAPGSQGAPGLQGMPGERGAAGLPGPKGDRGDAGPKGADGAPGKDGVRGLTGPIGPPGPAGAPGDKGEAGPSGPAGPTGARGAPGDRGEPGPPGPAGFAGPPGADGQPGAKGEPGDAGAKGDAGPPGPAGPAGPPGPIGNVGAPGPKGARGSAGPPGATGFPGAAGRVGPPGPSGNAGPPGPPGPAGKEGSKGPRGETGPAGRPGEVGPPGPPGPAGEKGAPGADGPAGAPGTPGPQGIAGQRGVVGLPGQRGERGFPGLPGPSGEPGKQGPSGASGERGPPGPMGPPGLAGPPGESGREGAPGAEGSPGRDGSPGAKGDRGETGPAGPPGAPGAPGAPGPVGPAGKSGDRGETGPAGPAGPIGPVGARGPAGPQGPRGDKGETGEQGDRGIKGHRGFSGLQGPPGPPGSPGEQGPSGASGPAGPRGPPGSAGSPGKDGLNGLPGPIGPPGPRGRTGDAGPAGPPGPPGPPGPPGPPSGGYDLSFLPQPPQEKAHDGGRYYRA
Chain of UniProt P02453 (P02465 80-1117, chain 2 of 2, further chain): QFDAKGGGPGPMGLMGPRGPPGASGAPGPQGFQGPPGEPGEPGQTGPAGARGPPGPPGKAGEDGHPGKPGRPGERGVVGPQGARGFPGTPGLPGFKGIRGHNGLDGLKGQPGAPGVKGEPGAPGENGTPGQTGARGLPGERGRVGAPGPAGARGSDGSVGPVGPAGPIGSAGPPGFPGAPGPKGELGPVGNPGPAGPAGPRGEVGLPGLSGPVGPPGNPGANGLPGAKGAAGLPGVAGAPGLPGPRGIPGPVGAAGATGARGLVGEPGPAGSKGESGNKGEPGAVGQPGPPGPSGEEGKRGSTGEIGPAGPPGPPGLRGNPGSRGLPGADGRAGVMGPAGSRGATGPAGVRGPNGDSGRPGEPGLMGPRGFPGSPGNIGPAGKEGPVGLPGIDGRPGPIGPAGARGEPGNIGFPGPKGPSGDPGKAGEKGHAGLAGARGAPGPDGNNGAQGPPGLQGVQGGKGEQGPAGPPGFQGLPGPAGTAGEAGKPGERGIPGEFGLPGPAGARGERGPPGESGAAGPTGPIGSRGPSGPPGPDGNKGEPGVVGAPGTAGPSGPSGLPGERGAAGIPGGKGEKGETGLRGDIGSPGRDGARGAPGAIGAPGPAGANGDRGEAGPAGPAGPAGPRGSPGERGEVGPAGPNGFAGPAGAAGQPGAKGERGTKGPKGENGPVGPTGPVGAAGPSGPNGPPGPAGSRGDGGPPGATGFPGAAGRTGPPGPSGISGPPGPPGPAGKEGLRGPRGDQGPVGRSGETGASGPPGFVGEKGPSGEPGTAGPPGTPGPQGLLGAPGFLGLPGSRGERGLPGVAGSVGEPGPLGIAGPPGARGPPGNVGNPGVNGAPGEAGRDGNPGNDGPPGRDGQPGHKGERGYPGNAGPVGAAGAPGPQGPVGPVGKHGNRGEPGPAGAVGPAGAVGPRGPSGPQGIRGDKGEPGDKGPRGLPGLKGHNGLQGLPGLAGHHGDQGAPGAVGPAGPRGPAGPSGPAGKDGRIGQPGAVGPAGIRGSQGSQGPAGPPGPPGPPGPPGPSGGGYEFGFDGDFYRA

In turn, ColG-FNIII12-14 protein fragment gave a percent of the absorbed fragment remaining bound after 120 h in assay [1] of 43%.

Take ColH-FNIII12-14 protein fragment: the percent of the absorbed fragment remaining bound after 120 h in assay [2] is 10%. Also, the amount of fragment remaining on the ACS after 120 h (pmol per 1 mg of collagen) in assay [3] was found to be 90.

For the molecule PLGF-FNIII12-14 protein fragment, in assay [1], the percent of the absorbed fragment remaining bound after 120 h turned out to be 10%.

B1: recombinant human bone morphogenic protein 2, tagged with Dylight 488 (ligand)
chain: QAKHKQRKRLKSSCKRHPLYVDFSDVGWNDWIVAPPGYHAFYCHGECPFPLADHLNSTNHAIVQTLVNSVNSKIPKACCVPTELSAISMLYLDENEKVVLKNYQDMVVEGCGCR
modifications: Dylight 488 (amino reactive NHS ester dye)
In assay [4], B1 had a percent of rhBMP-2 absorbed of 30 to 32% and a percent of the absorbed rhBMP-2 retained after 120 h of 33%.
